Test results published in patent US8008542B2, “Compositions, cells, and plants that include BKI1, a negative regulator of BRI1-mediated BR signaling” (The Salk Institute for Biological Studies, priority 2007, dated 2011).

Tests used:
[1] = target: T1, CLV1 (Arabidopsis thaliana, UniProt Q9SYQ8); assay: Yeast two-hybrid interaction with CLV1-KD; format: binding
T1 construct: expressed in transfected cells; host or cells: yeast strain MaV203
T1 sequence (Q9SYQ8 692-968 limits assumed): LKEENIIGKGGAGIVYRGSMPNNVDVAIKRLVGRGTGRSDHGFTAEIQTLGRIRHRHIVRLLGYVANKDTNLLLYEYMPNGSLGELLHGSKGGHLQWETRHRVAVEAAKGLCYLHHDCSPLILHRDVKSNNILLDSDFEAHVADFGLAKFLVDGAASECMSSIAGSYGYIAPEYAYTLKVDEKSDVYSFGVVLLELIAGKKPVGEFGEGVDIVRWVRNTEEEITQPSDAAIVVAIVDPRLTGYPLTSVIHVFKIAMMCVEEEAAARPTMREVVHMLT
Method: (§1) BKI1 fused with GAL4-AD (BKI1-pEXAD502) interacts with the intracellular domain of BRI1 (BRI1-KD), but not CLV1 (CLV1-KD), BRL1 (BRL1-KD), and BRL3 (BRL3-KD), fused with GAL4-DB (in pDBLeu) in yeast. pDBLeu was used as a negative control. Each spot from left to right contains 10 μl yeast cell culture with OD600=0.2, 0.04, 0.008, and 0.0016.

[2] = target: kinase-inactive BRI1 (mBRI1-KD) (Arabidopsis thaliana, UniProt O22476, K911E); conditions: yeast two-hybrid, ONPG liquid culture assay
Chain of kinase-inactive BRI1 (mBRI1-KD) (O22476 828-1196 K911E): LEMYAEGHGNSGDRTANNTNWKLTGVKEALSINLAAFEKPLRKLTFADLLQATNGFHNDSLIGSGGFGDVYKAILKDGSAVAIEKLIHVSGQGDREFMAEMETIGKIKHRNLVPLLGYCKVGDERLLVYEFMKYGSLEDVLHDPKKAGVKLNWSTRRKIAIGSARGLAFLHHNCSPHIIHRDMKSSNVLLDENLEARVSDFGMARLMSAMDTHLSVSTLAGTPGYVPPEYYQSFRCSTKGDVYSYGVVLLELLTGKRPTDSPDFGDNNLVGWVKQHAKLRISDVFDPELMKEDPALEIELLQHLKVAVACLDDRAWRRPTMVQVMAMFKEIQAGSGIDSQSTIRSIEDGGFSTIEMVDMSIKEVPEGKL
Method: (§2) A ProQuest Two-Hybrid system with Gateway technology (Invitrogen) was used. […] The full-length (BKI1-FL), and various truncated proteins, 1-252 (BKI1-ΔCT1), 1-299 (BKI1-ΔCT2), and 253-337 (BKI1-CT) of BKI1 were cloned into the pEXPAD502 vector. The kinase domain of NIK1 (NIK1-KD) (Fontes et al. (2004) Genes Dev. 18:2545), BAK1 (BAK1-KD), CLV1 (CLV1-KD), BRL1 (BRL1-KD), BRL3 (BRL3-KD), full length TTL, and full-length BIN2 were cloned into the pDBLeu vector. Interactions were tested on SD medium minus Leu, Trp, and His, and containing 25 mM 3-Amino-1,2,4-Triazole (3AT), using the yeast strain MaV203 according to the manufacturer's manual.

[3] = target: T2, BRL3 (Arabidopsis thaliana, UniProt Q9LJF3); assay: Yeast two-hybrid interaction with BRL3-KD; format: binding
T2 construct: expressed in transfected cells; host or cells: yeast strain MaV203
T2 sequence (Q9LJF3 858-1136 limits assumed): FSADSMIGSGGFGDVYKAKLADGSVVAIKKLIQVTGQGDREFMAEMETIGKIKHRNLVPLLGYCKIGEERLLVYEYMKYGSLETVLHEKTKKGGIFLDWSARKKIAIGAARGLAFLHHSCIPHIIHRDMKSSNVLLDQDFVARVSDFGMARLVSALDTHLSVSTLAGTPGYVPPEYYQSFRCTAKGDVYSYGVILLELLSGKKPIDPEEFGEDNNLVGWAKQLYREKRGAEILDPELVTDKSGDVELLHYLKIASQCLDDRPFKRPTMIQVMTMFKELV
Method: as §1

[4] = target: T3, BRI1 kinase (Arabidopsis thaliana, UniProt O22476); assay: In vitro phosphorylation of MBP-BKI1 by BRI1 kinase; format: biochemical; conditions: MBP-BKI1, BRI1-KD-HIS, 200 μM ATP; read-out: Km as substrate of BRI1 kinase in vitro
T3 construct: The intracellular domain of BRI1(BRI1-KD) was cloned into pETBlue2 (Novagen) with a C-terminal His tag; made in house; host or cells: E. coli BL21 (DE3) Codon plus RIL
T3 sequence (O22476 883-1158 limits assumed): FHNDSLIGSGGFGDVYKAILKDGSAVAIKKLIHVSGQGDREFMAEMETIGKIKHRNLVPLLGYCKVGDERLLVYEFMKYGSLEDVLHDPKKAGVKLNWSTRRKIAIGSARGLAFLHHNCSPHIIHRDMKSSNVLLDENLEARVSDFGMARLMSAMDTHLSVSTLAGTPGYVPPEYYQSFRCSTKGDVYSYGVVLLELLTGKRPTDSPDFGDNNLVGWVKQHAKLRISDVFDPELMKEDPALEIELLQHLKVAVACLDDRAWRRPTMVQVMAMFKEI
Method: The intracellular domain of BRI1(BRI1-KD) was cloned into pETBlue2 (Novagen) with a C-terminal His tag. BKI1 was cloned into the pMAL-2cX vector (New England Biolabs) resulting in an Nterminal maltose-binding protein (MBP) fusion. BRI1-KD-HIS and MBP-BKI1 fusion proteins were expressed in BL21 (DE3) Codon plus RIL (Stratagene) and purified with Ni-NTA agarose (Qiagen) and […] (New England Biolabs), respectively. For the phosphorylation assays, each reaction contained 50 mM HEPES [pH7.4], 10 mM MgCl2, 10 mM MnCl2, 1 mM DTT, 200 μM ATP, 1 μl (10 μCi) [γ-32P] ATP, 0.5 μl of BRI1-His, different amounts of MBP-BKI1, and double deionized H2O in a final volume of 24 μl. Reactions were terminated by addition of 8 μl of 4×SDS loading buffer. Samples were separated on a 4-20% Tris-Glycine SDS-PAGE gel (Invitrogen), which was then stained, destained, dried, and visualized and quantified using a PhosphorImager. The kinetic analysis of the phosphorylation of MBP-BKI1 by BRI1 kinase was conducted with a GraphPad Prism 4 (http://www.graphpad.com/prism/Prism.htm). […] The BKI1-FLAG protein was detected by immunoblot analysis with anti-FLAG antibody.

[5] = target: T4, TTL (Arabidopsis thaliana, UniProt Q9LVM5); assay: Yeast two-hybrid interaction with TTL; format: binding
T4 construct: full length TTL, and full-length BIN2 were cloned into the pDBLeu vector; expressed in transfected cells; host or cells: yeast strain MaV203
T4 sequence (Q9LVM5 1-324): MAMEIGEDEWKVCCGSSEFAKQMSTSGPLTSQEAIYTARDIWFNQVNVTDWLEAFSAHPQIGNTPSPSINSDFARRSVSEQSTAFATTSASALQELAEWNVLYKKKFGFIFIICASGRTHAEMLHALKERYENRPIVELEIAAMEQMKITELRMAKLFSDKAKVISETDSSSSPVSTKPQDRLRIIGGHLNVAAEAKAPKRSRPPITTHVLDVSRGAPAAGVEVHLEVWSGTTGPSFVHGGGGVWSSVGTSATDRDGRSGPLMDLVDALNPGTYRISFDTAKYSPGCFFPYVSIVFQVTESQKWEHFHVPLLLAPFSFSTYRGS
Method: as §2

[6] = target: T5, BRL1 (Arabidopsis thaliana, UniProt Q9ZWC8); assay: Yeast two-hybrid interaction with BRL1-KD; format: binding
T5 construct: expressed in transfected cells; host or cells: yeast strain MaV203
T5 sequence (Q9ZWC8 859-1147 limits assumed): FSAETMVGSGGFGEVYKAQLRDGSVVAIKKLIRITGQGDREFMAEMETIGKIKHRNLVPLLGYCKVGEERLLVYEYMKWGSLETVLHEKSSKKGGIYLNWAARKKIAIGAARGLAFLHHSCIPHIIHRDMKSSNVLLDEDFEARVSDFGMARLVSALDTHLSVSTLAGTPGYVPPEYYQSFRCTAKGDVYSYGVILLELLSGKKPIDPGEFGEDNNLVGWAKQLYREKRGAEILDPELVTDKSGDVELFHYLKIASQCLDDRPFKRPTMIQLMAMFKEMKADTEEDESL
Method: as §1

B1: BKI1: BRI1-interacting protein of 337 amino acids, negative regulator of brassinosteroid signaling (SEQ ID NO:1) (protein, listed as Arabidopsis thaliana)
chain: METNLQQVKNSSQTFSEKQNPKQEASPSPISSTCSSPSHDFSFTISLQPLSSSSKHISPTLRSPSKTTSSYQQTDPFAVDLSPADEIFFHGHLLPLHLLSHLPVSPRTSTGSYNDGFTLPVKDILPDQPTNNNNNTENAITNISTEAKDDNTEDKAEGEIRVKTKPIKSFSLFGLSKWRKGFESNEREQEQQQQKIKKPMSLDLSHAVKKYIRMLFQKRGNGTQFWNRRQTSSYSFSSSLMGPNGNSKTMINGSYNKRDLIRGRRGELFSAPASMRTSPTNSGHLRVSTAGLSSSSGSTSSSSSDSTMEELQAAIQAAIAHCKNSSAVDRDDKVKDS
- interaction with kinase domain of CLV1 in yeast [1]: does not interact
- interaction with kinase-inactive BRI1 relative to kinase active BRI1 [2]: stronger
- interaction with kinase domain of BRL3 in yeast [3]: does not interact
- Km [4]: ~1550 nM
- interaction with TTL in yeast [5]: not
- interaction with kinase domain of BRL1 in yeast [6]: does not interact
